# Tests used:
# [1] = biological target: T1, LILRB1 expressed on the surface of human natural killer cell KHYG-1 (human, UniProt Q8NHL6 24-650); experiment: flow cytometry (iQue) on KHYG-1 NK cells, antibody 50 ug/mL
# T1 construct: whole, on cells; also called LILRB1 on KHYG-1 cells; human NK cells (surface)
# Experimental: In order to test whether or not 93 antibodies selected in Example 1.4 bind LILRB1 expressed on surface of immune cells, natural killer cell (NK cell) surface binding assay was performed. A human NK cell, KHYG-1 cell (JCRB) was cultured in RPMI 1640 medium (Gibco) supplemented with 10%(w/v) of FBS (Gibco) and 100 U/mL of interleukin-2 (Novartis). KHYG-1 cells were added to a U-bottom 96-well tissue culture plate (BD Falcon) at the amount of 5×10⁴ cells/well. Each of the selected antibodies was added to the well to the final concentration of 50 μg/mL per well and incubated at 4° C. for 1 hour.
# In order to see the level of LILRB1-specific binding of the selected antibodies, a human IgG4 isotype control antibody (Biolegend) was treated in the same manner. After washing with FACS buffer, the cells were treated with an anti-human Fc-biotin antibody (life technologies) and incubated at 4° C. for 1 hour. After washing with FACS buffer, the cells were treated with streptavidin PE (BD Pharmigen) and incubated at 4° C. for 30 minutes. After washing with FACS buffer, the cells were resuspended and subjected to analysis using iQue screener (Sartorius).
# [2] = biological target: T2, human LILRB1 protein (LILRB1-His, RnD systems Cat. No. 8989-T2) (human, UniProt Q8NHL6 24-458); experiment: SPR (Biacore T200), antibody captured by anti-human IgG (Fc), LILRB1-His injected
# T2 construct: Bought protein; also called human LILRB1-His; not shown: His tag
# T2 sequence (Q8NHL6 24-458 limits assumed): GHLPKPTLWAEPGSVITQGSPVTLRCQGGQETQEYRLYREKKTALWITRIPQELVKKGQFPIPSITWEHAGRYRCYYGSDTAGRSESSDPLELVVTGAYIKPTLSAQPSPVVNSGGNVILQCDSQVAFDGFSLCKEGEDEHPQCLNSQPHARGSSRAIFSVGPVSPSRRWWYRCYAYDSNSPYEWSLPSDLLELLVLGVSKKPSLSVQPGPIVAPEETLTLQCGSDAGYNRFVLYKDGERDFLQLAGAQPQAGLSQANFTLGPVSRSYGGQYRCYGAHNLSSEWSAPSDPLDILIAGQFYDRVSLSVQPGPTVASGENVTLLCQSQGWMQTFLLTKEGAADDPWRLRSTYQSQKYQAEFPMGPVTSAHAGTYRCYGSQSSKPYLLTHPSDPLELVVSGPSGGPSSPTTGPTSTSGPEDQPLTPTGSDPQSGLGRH
# Experimental: The binding affinities of the 93 antibodies, which were selected in Example 1.3, to the antigen, LILRB1, were measured using Biacore T200 (GE healthcare). An anti-human IgG (Fc) antibody (GE healthcare, Cat. No. BR-1008-39, final concentration of 25 μg/mL) was flowed at the flow rate of 5 μL/min for 360 seconds to be immobilized at 5000-7000 RU on Series S Sensor Chip CM5 (GE healthcare, Cat. No. BR-1005-30) using Amine Coupling Kit (GE healthcare, Cat. No. BR-1000-508).
# T1 sequence (Q8NHL6 24-650): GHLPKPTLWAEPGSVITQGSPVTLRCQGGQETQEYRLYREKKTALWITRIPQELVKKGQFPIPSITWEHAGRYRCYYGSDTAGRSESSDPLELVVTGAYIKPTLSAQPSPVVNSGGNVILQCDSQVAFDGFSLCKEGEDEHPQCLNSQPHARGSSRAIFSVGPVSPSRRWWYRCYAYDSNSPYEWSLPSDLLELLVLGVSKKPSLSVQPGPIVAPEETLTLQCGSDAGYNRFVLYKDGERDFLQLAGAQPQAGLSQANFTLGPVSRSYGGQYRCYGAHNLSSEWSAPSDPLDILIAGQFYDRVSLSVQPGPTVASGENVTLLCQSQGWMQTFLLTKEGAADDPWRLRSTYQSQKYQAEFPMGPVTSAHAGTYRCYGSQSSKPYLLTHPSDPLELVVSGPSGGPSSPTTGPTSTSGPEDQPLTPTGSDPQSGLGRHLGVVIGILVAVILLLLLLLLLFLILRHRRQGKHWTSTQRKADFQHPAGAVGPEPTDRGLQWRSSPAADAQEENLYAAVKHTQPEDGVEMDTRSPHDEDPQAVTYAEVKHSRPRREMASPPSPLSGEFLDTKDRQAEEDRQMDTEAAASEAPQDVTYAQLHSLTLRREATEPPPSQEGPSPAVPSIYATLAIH
Binder,% of population 2 [1],Mean Fluorescence Intensity [1],Kd [2],koff [2],kon [2]
"anti-LILRB1 antibody F12 (antibody, human IgG4 S228P, V domains shown, human IgG4, lambda light chain; also called Antibody clone F12) VH: QVQLVQSGAEVKKPGESLKISCKGSGYSFTSYWIGWVRQMPGKGLEWMGIIYPGDSDTRYSPSFQGQVTISADKSISTAYLQWSSLKASDTAMYYCASQYYDGGYYMDVWGQGTLVTVSS VL: QSVLTQPASVSGSPGQSITISCAGTSSDIGDYDYVSWYQQHPGKTPKLMIYDVSRRPSGVPDRFSGSKSGNTASLTISGLQTEDEADYYCASYTSSSVVVFGGGTKLTVLG",38%,262000,3.46 nM,0.000973 s⁻¹,281000 M⁻¹ s⁻¹
"anti-LILRB1 antibody E9 (antibody, human IgG4 S228P, V domains shown, human IgG4, lambda light chain; also called Antibody clone E9) VH: QVQLVESGGGLVQPGRSLRLSCAASGFTFSSYGMHWVRQAPGKGLEWVANIKQDGSEKYYVDSVKGRFTISRDNAKNTLYLQMNSLRAEDTAVYYCAREDRIAAAGMRELDYWGQGTLVTVSS VL: QSELTQLPSASETPGQRVTISCSGSSSNIGNNYVYWYQQLPGTAPKLLIYRNNQRPSGVPDRFSGSKSGTSASLAISGLRSEDEADYYCAAWDDSLSGWVFGGGTKLTVLG",–,–,99.9 nM,0.00105 s⁻¹,10500 M⁻¹ s⁻¹
"anti-LILRB1 antibody E6 (antibody, human IgG4 S228P, V domains shown, human IgG4, lambda light chain; also called Antibody clone E6) VH: QVQLVQSGAEVKKPGASVKVSCKASGYTFTTYDITWVRQAPGQGLEWMGWMNPNSGNSRSAQKFQGRVSMTSDSSISTAYMELSSLRSEDTAVYYCATGDYSGVVLTATALDYWGQGTLVTVSS VL: NFMLTQPHSVSESPGKTVTLSCTGSSGNIASNYVQWYQHRPGSAPTTVIYRDDQRPSGVPDRFSGSIDSSSNSASLTISGLRPEDEADYYCQSYDSSSWVFGGGTKLTVLG",–,–,60.7 nM,0.00163 s⁻¹,26800 M⁻¹ s⁻¹
"anti-LILRB1 antibody B3 (antibody, human IgG4 S228P, V domains shown, human IgG4, kappa light chain; also called Antibody clone B3) VH: EVQLLESGGGLVQPGRSLRLSCAASGFTFDDYAMHWVRQAPGKGLEWVSGISWNSGSIGYADSVKGRFTISRDNSKNTLYLQMNSLRAEDTAVYYCARVGDSSGWSDAFDIWGQGTMVTVSS VL: not shown",–,–,99.8 nM,0.00149 s⁻¹,14900 M⁻¹ s⁻¹
"anti-LILRB1 antibody G1 (antibody, human IgG4 S228P, V domains shown, human IgG4, lambda light chain; also called Antibody clone G1) VH: EVQLVQSGAEVKKPGSSVKVSCKASGGTFSSYGISWVRQAPGQGLEWMGWISAYNGNTNYAQELQGRVTMTTDTSTSTAYMELRSLRSDDTAVYYCARVGVAGKLDYWGQGTLVTVSS VL: SYELTQPPSLSVSPGQTASITCSGYKLGDRYVSWYQQKTGQSPVVVIYKDSQRPSGVPERFSGSNSGNTATLTISGTQAMDEADYYCQAWDSGTGVFGGGTKLTVLG",56.2%,321000,3.28 nM,0.00142 s⁻¹,433000 M⁻¹ s⁻¹
"anti-LILRB1 antibody B9 (antibody, V domains shown, human IgG4, kappa light chain; also called Antibody clone B9) VH: QVQLVESGAEVKKPGSSVKVSCKASGGTFSSYAISWVRQAPGQGLEWMGGIIPIFGTANYAQKFQGRVTITADESTSTAYMELSSLRSEDTAVYYCARGEIAVAQNWDYYGMDVWGQGTLVTVSS VL: DIQMTQSPSSLSASVGDRVTITCRASQSISRYLNWYQQKPGKAPKLLIYGASSLQSGVPSRFSGSGSGTDFTLTISSLQPEDFATYHCQQAYGFPLTLGGGTKVEIKR",–,–,66.1 nM,0.000616 s⁻¹,9320 M⁻¹ s⁻¹
"anti-LILRB1 antibody A11 (antibody, human IgG4 S228P, V domains shown, human IgG4, kappa light chain; also called Antibody clone A11) VH: EVQLLESGGGLEQPGGFLRLSCAASGFSFTSYAMTWVRQAPGKGLEWVSGISSDGTTTTYADSVRGRFTISRDNAKNTVYLQMNSLRDEDTAVYYCARDQLLGWDALNVWGQGTMVTVSS VL: not shown",–,–,5450 nM,0.000981 s⁻¹,180 M⁻¹ s⁻¹
"anti-LILRB1 antibody F11 (antibody, human IgG4 S228P, V domains shown, human IgG4, lambda light chain; also called Antibody clone F11) VH: EVQLVESGGGLVQPGGSLKLSCAASGFTFSSYAMSWVRRAPGKGLEWVSTISGSGDSTYYADSVKGRFTISRDNSKNTLYLQMNNLRAEDTAVYYCAREWELGDAFDIWGRGTLVTVSS VL: QSVLTQPPSTSGTPGQTFSIFCSGSSSNIGTNTVNWYQQLPGTAPKLLIYSNDQRPSGVPDRFSGSKSGTSASLAISGLQSEDEADYYCETWDDSLKGPVFGGGTKVTVLG",–,–,2.26 nM,0.000615 s⁻¹,272000 M⁻¹ s⁻¹
"anti-LILRB1 antibody G6 (antibody, human IgG4 S228P, V domains shown, human IgG4, lambda light chain; also called Antibody clone G6) VH: EVQLVESGAEVKKPGASVKVSCKASGYTFTSYYMHWVRQAPGQGLEWMGGIIPIFGTANYAQKFQGRVTITADESTSTAYMELSSLRSEDTAVYYCARGWGYSSSFDYWGQGTTVTVSS VL: SYELTQDPAVSVALGQTVTITCQGDSLRRYYATWYQQKPGQAPVLVIYGQNYRPSGIPDRFSGSNSGTTASLTITGAQAEDEADYYCNSRDSSGNHVVFGGGTKLTVLG",–,–,59.1 nM,0.0152 s⁻¹,258000 M⁻¹ s⁻¹
"anti-LILRB1 antibody E3 (antibody, human IgG4 S228P, human IgG4, lambda light chain; also called Antibody clone E3) heavy: not shown light: SYELTQDPAVSVALGQTVRITCQGDSLRNFYASWYQQKSGQAPVLVMYGKNNRPSGIPDRFSGSTSGNTASLTITGAQAEDEADYYCNSRDSSGSHLTGVFGGGTKVTVLGQPAAAPSVTLFPPSSEELQANKATLVCLISDFYPGAVTVAWKADSSPVKAGVETTTPSKQSNNKYAASSYLSLTPEQWKSHRSYSCQVTHEGSTVEKTVAPTECS",40.2%,269000,101 nM,0.0035 s⁻¹,34600 M⁻¹ s⁻¹
"anti-LILRB1 antibody B12 (antibody, V domains shown, human IgG4, kappa light chain; also called Antibody clone B12) VH: QVQLVQSGAEVKKPGASVKVSCKASGYTFTGYYMHWVRQAPGQGLEWMGWINPNSGGTNYAQKFQGRVTITADESTSTAYMELSSLRSEDTAVYYCTRAGASIVGATALDYWGQGTLVTVSS VL: not shown",–,–,7.84 nM,0.00144 s⁻¹,184000 M⁻¹ s⁻¹
"anti-LILRB1 antibody D3 (antibody, human IgG4 S228P, V domains shown, human IgG4; also called Antibody clone D3) VH: EVQLLESGGGVVQPGRSLRLSCAASGSTFSSYAMSWVRQAPGKGLEWVSAISGSGGSTYYADSVKGRFTISRDNSKNTLYLQMNSLRAEDTAVYYCAKDRGSYGYYYGMDVWGQGTMVTVSS VL: not shown",–,–,180 nM,0.000558 s⁻¹,3110 M⁻¹ s⁻¹
"anti-LILRB1 antibody E4 (antibody, human IgG4 S228P, V domains shown, human IgG4, lambda light chain; also called Antibody clone E4) VH: QVQLVQSGAEVKKPGSSVKVSCKASGGTFSSYTISWVRQAPGQGLEWMGRIIPILGIANYAQKFQGRVTMTRDMSTDTAYMELSSLTYDDTAVYFCVRGPSLNYAGYFDNWGQGTLVTVSS VL: NFMLTQPHSVSESPGKTVTISCTRSSGSIASNYVQWYQQRPGSSPTTVIYEDNQRPSGVPDRFSGSIDSSSNSASLTISGLKTEDEADYYCQSYDTGNRNYVFGTGTQLTVLG",43.2%,272000,72.5 nM,0.000773 s⁻¹,10600 M⁻¹ s⁻¹
"anti-LILRB1 antibody A10 (antibody, human IgG4 S228P, V domains shown, human IgG4, kappa light chain; also called Antibody clone A10) VH: QMQLVQSGAEVKKPGSSVKVSCKASGGTFSSYAISWVRQAPGQGLEWMGGIIPIFGTANYAQKFQGRVTITADKSISTAYMELSSLRSEDTAVYYCARGGLGELDNWFDPWGQGTLVTVSS VL: DIVMTQSPATLSVSPGERATLSCRASQSVSSNLAWYQQKPGQAPRLLIYGASTRATGIPARFSGSGSGTEFTLTISSLQSEDFAVYYCQQYGSSPRMYTFGQGTKVDIKR",28.7%,223000,152 nM,0.00765 s⁻¹,50400 M⁻¹ s⁻¹
"anti-LILRB1 antibody D1 (antibody, human IgG4 S228P, V domains shown, human IgG4, kappa light chain; also called Antibody clone D1) VH: EVQLVQSGAEVKKPGASVKVSCKASGYTFTSYGISWVRQAPGQGLEWMGWINPNSGGTNYAQKFQGRVTMTRDTSISTAYMELSRLRSDDTAVYYCASRGVDEGDYWGQGTMVTVSS VL: ETTLTQSPAFMSATPGDKVNISCKASQDIDDDMNWYQQKPGEAAISIIQEASTLVPGIPPRFSGSGYGTDFTLTINNIESEDAAYYFCLQHDKFPYTFGQGTKLEIKR",–,–,49.3 nM,0.00574 s⁻¹,116000 M⁻¹ s⁻¹
"anti-LILRB1 antibody E12 (antibody, human IgG4 S228P, V domains shown, human IgG4, lambda light chain; also called Antibody clone E12) VH: QVQLVESGGGLVQPGGSLRLSCAASGFTFSSYAMHWVRQAPGKGLEWVAVISYDGSNKYYADSVKGRFTISRDNSKNTLYLQMNSLRAEDTAVYYCARERGSGMDVWGQGTLVTVSS VL: SYELTQDPAVSVALGQTVRITCQGDSLRSYYASWYQQKSGQAPVLVIYGKEKRPSGIPDRFSGSSSGNTASLTITGARAEDEADYYCNSRGSTTDYMVFGGGTQLTVLG",–,–,44 nM,0.0103 s⁻¹,233000 M⁻¹ s⁻¹
